Sequences and labels used below:
B1: KCNG1 (parent)
chain: AVNLSVSTLPSLREEEEQVRAHAP
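Also: lentivirally expressed fusions sorted by FACS into six bins by GFP to DsRed ratio, PSI derived from sequencing read proportions per bin multiplied by bin number.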

In the data set the parent is B1. Briefly: protein stability index of a GFP-peptide fusion (GPS, HEK-293T) (PSI 1-6); higher = more stable. Particulars: c terminus: a fixed tail appended.
Turning to AVNLSVSTLPSLREEEFQVRAHAP, the protein stability index was found to be 3.23.

As for AVNLSVSTLPSLREEEAQVRAHAP, the protein stability index stood at 4.67.

AVNLSVSTLPSLREEECQVRAHAP: the protein stability index came to 4.2.

Consider AVNLSVSTLPSLREEEKQVRAHAP, for which the protein stability index is 4.43.

Regarding AVNLSVSTLPSLREEEDQVRAHAP, the protein stability index is 4.73.

With AVNLSVSTLPSLREEEHQVRAHAP, the protein stability index is 4.43.

As to AVNLSVSTLPSLREEEIQVRAHAP, the protein stability index was 4.23.

AVNLSVSTLPSLREEEGQVRAHAP: the protein stability index was determined as 4.64.

AVNLSVSTLPILREEEEQVRAHAP: the protein stability index was determined as 4.79.

As to AVNLSVSTLPHLREEEEQVRAHAP, the protein stability index worked out at 5.07.

As to AVNLSVSTLPELREEEEQVRAHAP, the protein stability index stood at 5.14.

Turning to AVNLSVSTLPVLREEEEQVRAHAP, the protein stability index came to 4.83.

Regarding AVNLSVSTLPWLREEEEQVRAHAP, the protein stability index worked out at 4.35.

For the variant AVNLSVSTLPNLREEEEQVRAHAP, the protein stability index came to 4.95.

As to AVNLSVSTLPCLREEEEQVRAHAP, the protein stability index is 4.3.

In the case of AVNLSVSTLPMLREEEEQVRAHAP, the protein stability index is 4.54.

In the case of AVNLSVSTLPLLREEEEQVRAHAP, the protein stability index is 4.75.

With AVNLSVSTLPKLREEEEQVRAHAP, the protein stability index worked out at 5.13.

As for AVNLSVSTLPTLREEEEQVRAHAP, the protein stability index was determined as 4.84.

Turning to AVNLSVSTLPRLREEEEQVRAHAP, the protein stability index is 4.88.

Regarding AVNLSVSTLPALREEEEQVRAHAP, the protein stability index was 5.43.

Regarding AVNLSVSTLPQLREEEEQVRAHAP, the protein stability index was 5.01.

Turning to AVNLSVSTLPPLREEEEQVRAHAP, the protein stability index worked out at 4.93.

On to AVNLSVSTLPDLREEEEQVRAHAP, for which the protein stability index is 5.02.

As for AVNLSVSTLPFLREEEEQVRAHAP, the protein stability index came out at 4.45.

On to AVNLSVSTLPGLREEEEQVRAHAP, for which the protein stability index came to 3.95.

With AVNLSVSTLPYLREEEEQVRAHAP, the protein stability index amounted to 4.54.

As to AVNLSVSVLPSLREEEEQVRAHAP, the protein stability index was found to be 4.45.

Turning to AVNLSVSKLPSLREEEEQVRAHAP, the protein stability index was found to be 4.61.

Regarding AVNLSVSDLPSLREEEEQVRAHAP, the protein stability index amounted to 5.36.

As for AVNLSVSLLPSLREEEEQVRAHAP, the protein stability index was determined as 4.55.

Consider AVNLSVSYLPSLREEEEQVRAHAP, for which the protein stability index is 4.19.

AVNLSVSWLPSLREEEEQVRAHAP: the protein stability index amounted to 3.11.

On to AVNLSVSMLPSLREEEEQVRAHAP, for which the protein stability index is 4.53.

Take AVNLSVSRLPSLREEEEQVRAHAP: the protein stability index was found to be 4.94.

With AVNLSVSELPSLREEEEQVRAHAP, the protein stability index worked out at 4.95.

As to AVNLSVSPLPSLREEEEQVRAHAP, the protein stability index is 5.14.

As for AVNLSVSFLPSLREEEEQVRAHAP, the protein stability index was 3.42.

For the variant AVNLSVSHLPSLREEEEQVRAHAP, the protein stability index is 4.83.

Take AVNLSVSNLPSLREEEEQVRAHAP: the protein stability index came to 5.14.

In the case of AVNLSVSQLPSLREEEEQVRAHAP, the protein stability index was 5.07.

In the case of AVNLSVSGLPSLREEEEQVRAHAP, the protein stability index was determined as 5.15.

Consider AVNLSVSILPSLREEEEQVRAHAP, for which the protein stability index is 4.12.

AVNLSVSALPSLREEEEQVRAHAP: the protein stability index turned out to be 5.28.

As for AVNLSVSSLPSLREEEEQVRAHAP, the protein stability index is 4.82.

With AVNLSVSCLPSLREEEEQVRAHAP, the protein stability index was 4.67.

Consider AVNLSVSTLPSLHEEEEQVRAHAP, for which the protein stability index turned out to be 4.99.

As to AVNLSVSTLPSLSEEEEQVRAHAP, the protein stability index worked out at 5.2.

Turning to AVNLSVSTLPSLIEEEEQVRAHAP, the protein stability index was 4.68.

As to AVNLSVSTLPSLVEEEEQVRAHAP, the protein stability index came out at 4.81.

Take AVNLSVSTLPSLNEEEEQVRAHAP: the protein stability index was 5.3.

Consider AVNLSVSTLPSLCEEEEQVRAHAP, for which the protein stability index came out at 4.99.

As for AVNLSVSTLPSLLEEEEQVRAHAP, the protein stability index was 4.77.

On to AVNLSVSTLPSLEEEEEQVRAHAP, for which the protein stability index came out at 5.25.

Regarding AVNLSVSTLPSLTEEEEQVRAHAP, the protein stability index worked out at 5.25.

Take AVNLSVSTLPSLMEEEEQVRAHAP: the protein stability index was found to be 5.03.

Regarding AVNLSVSTLPSLKEEEEQVRAHAP, the protein stability index turned out to be 4.85.

Consider AVNLSVSTLPSLWEEEEQVRAHAP, for which the protein stability index came out at 4.77.

With AVNLSVSTLPSLYEEEEQVRAHAP, the protein stability index was determined as 4.67.

For the variant AVNLSVSTLPSLFEEEEQVRAHAP, the protein stability index came out at 4.78.

For the variant AVNLSVSTLPSLPEEEEQVRAHAP, the protein stability index was found to be 5.67.

With AVNLSVSTLPSLQEEEEQVRAHAP, the protein stability index was found to be 4.91.

In the case of AVNLSVSTLPSLDEEEEQVRAHAP, the protein stability index was determined as 5.15.

In the case of AVNLSVSTLPSLAEEEEQVRAHAP, the protein stability index was determined as 5.

As to AVNLSVSTLPSLGEEEEQVRAHAP, the protein stability index was determined as 4.55.

On to AVNLSVSTLPSQREEEEQVRAHAP, for which the protein stability index is 5.19.

Regarding AVNLSVSTLPSIREEEEQVRAHAP, the protein stability index worked out at 4.79.

AVNLSVSTLPSPREEEEQVRAHAP: the protein stability index turned out to be 5.13.

With AVNLSVSTLPSCREEEEQVRAHAP, the protein stability index came out at 4.42.

As for AVNLSVSTLPSEREEEEQVRAHAP, the protein stability index was 5.62.

On to AVNLSVSTLPSDREEEEQVRAHAP, for which the protein stability index turned out to be 5.41.

In the case of AVNLSVSTLPSSREEEEQVRAHAP, the protein stability index turned out to be 5.33.

Turning to AVNLSVSTLPSRREEEEQVRAHAP, the protein stability index is 5.35.

On to AVNLSVSTLPSKREEEEQVRAHAP, for which the protein stability index came out at 4.67.

Consider AVNLSVSTLPSHREEEEQVRAHAP, for which the protein stability index was 5.17.

As to AVNLSVSTLPSFREEEEQVRAHAP, the protein stability index turned out to be 4.59.

For AVNLSVSTLPSTREEEEQVRAHAP, the protein stability index is 5.38.

Regarding AVNLSVSTLPSGREEEEQVRAHAP, the protein stability index came out at 5.21.

As for AVNLSVSTLPSAREEEEQVRAHAP, the protein stability index is 5.

Regarding AVNLSVSTLPSNREEEEQVRAHAP, the protein stability index was found to be 5.11.

For the variant AVNLSVSTLPSWREEEEQVRAHAP, the protein stability index was 4.13.

Take AVNLSVSTLPSYREEEEQVRAHAP: the protein stability index came to 4.77.

For AVNLSVSTLPSVREEEEQVRAHAP, the protein stability index stood at 4.81.

AVNLSVSTLPSMREEEEQVRAHAP: the protein stability index came to 4.88.

Consider AVNLSVSTLPSLREELEQVRAHAP, for which the protein stability index is 3.82.

With AVNLSVSTLPSLREEQEQVRAHAP, the protein stability index is 4.27.

In the case of AVNLSVSTLPSLREEKEQVRAHAP, the protein stability index amounted to 4.46.

With AVNLSVSTLPSLREEVEQVRAHAP, the protein stability index is 4.32.

Turning to AVNLSVSTLPSLREENEQVRAHAP, the protein stability index is 4.26.

Regarding AVNLSVSTLPSLREEPEQVRAHAP, the protein stability index worked out at 3.96.

Turning to AVNLSVSTLPSLREECEQVRAHAP, the protein stability index is 4.26.

Take AVNLSVSTLPSLREEMEQVRAHAP: the protein stability index was found to be 3.56.

AVNLSVSTLPSLREEREQVRAHAP: the protein stability index turned out to be 4.18.

On to AVNLSVSTLPSLREEHEQVRAHAP, for which the protein stability index turned out to be 4.49.

(Values after the supplement of paper PMC10567573.)
